Experimental data as given in article PMC12739106, “Phosphate deficiency reduces nodule formation through a phosphate starvation response-like protein in Phaseolus vulgaris”.

Target: T1, PvPHR-L7 (formerly PvPHR1) (Phaseolus vulgaris, UniProt B4YEQ7 1-327)
T1 sequence: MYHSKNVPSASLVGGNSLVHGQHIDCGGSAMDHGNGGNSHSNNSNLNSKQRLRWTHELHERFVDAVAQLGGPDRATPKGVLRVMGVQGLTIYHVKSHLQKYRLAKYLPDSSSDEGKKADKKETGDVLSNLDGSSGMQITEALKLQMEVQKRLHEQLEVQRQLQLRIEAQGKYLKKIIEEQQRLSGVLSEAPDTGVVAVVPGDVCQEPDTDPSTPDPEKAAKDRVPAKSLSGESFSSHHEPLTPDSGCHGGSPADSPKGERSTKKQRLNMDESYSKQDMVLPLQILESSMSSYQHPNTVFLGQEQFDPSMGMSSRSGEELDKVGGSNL
Test: EMSA; poly(dI-dC); outcompeted by unlabeled same-sequence probe (50, 100 or 200 nM); LightShift Chemiluminescent EMSA kit, 1x binding buffer, 50 ng/ul poly(dI-dC), 1 unit protein, 0.1 'mmol' biotin probe, unlabeled competitor 5, 10, 20 'mmol' (legend: 50, 100, 200 nM); salt, pH and temperature not stated
Details: protein: recombinant; tags: His (pDEST17, N-terminal); chain copies: 2; 5' implied by name; blunt

B1: PvNIN promoter P1BS probe (dsDNA)
DNA 1: CAATTTCATTCTATAGCATATGCAACATTTTAGACAAAATCA
DNA 2: TGATTTTGTCTAAAATGTTGCATATGCTATAGAATGAAATTG
binding result: binds

B2: PvTML promoter P1BS probe (dsDNA)
DNA 1: GAAATTAATATAAAAAGCATATACTAAAATTAAGCATATGTT
DNA 2: AACATATGCTTAATTTTAGTATATGCTTTTTATATTAATTTC
binding result: binds
